In patent US20020197661:

Key:
[1] = test system: Acetyl-Prolyl-Arginyl-Asparaginyl-Lysyl-aminoacetamide coumarin (Ac-PRNK-ACC)
[2] = test system: Ac-PRTK-ACC
[3] = test system: Ac-PANK-ACC
[4] = test system: Ac-PRNR-ACC
[5] = test system: Acetyl-Prolyl-Arginyl-Asparaginyl-Lysyl-aminoacetamide coumarin (Ac-PRNK-ACC); assay: single substrate kinetics, fluorogenic ACC release, Lung (β-II) Tryptase
[6] = test system: Ac-PRTK-ACC; assay: as above
[7] = test system: Ac-PANK-ACC; assay: as above
[8] = test system: Ac-PRNR-ACC; assay: as above
[9] = test system: Acetyl-Prolyl-Arginyl-Asparaginyl-Lysyl-aminoacetamide coumarin (Ac-PRNK-ACC); assay: single substrate kinetics, fluorogenic ACC release, Skin (β-I) Tryptase
[10] = test system: Ac-PRTK-ACC; assay: as above
[11] = test system: Ac-PANK-ACC; assay: as above
[12] = test system: Ac-PRNR-ACC; assay: as above

Sequence of recombinant human βI-tryptase (chain, as listed by the source): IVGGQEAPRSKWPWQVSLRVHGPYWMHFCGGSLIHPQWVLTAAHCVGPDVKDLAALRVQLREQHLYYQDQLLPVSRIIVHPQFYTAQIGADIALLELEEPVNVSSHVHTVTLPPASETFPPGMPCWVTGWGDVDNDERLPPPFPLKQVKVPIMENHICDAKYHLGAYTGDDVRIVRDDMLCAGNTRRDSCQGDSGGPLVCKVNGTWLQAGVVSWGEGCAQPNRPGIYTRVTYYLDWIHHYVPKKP

Substance | cleavage of the fluorogenic substrate (fluorescence, excitation 355 nm, emission 460 nm) [1] | kcat [1] | kcat/km (s^-1M^-1) [1] | preference over Ac-PANK-ACC (kcat/Km) [1] | preference over Ac-PRTK-ACC (kcat/Km) [1] | kcat [2] | kcat/km (s^-1M^-1) [2] | kcat [3] | kcat/km (s^-1M^-1) [3] | activity relative to Ac-PRNK-ACC (kcat/Km) [4] | kcat [4] | kcat/km (s^-1M^-1) [4] | Km [5] | Km [6] | Km [7] | Km [8] | Km [9] | Km [10] | Km [11] | Km [12]
Human alpha-thrombin (Haematologic Technologies, Inc.) | Ac-PRNK-ACC (SEQ. ID. NO: 12) is a specific substrate for tryptase in relation to other blood borne serine proteases |  |  |  |  |  |  |  |  |  |  |  |  |  |  |  |  |  |  | 
recombinant human βII-tryptase |  | 16.8 s⁻¹ | 1.89e+06 s^-1M^-1 | an approximately 10-fold preference for Ac-PRNK-ACC (SEQ. ID. NO: 12) over Ac-PANK-ACC | A minimal preference, approximately 2-fold, for P2-asparagine over P2-threonine was seen for both enzymes | 18.7 s⁻¹ | 1.27e+06 s^-1M^-1 | 20.3 s⁻¹ | 180000 s^-1M^-1 | about 70-90% of the activity of Ac-PRNK-ACC | 21.8 s⁻¹ | 1.31e+06 s^-1M^-1 | 8.9 µM | 14.7 µM | 110 µM | 16.5 µM |  |  |  | 
recombinant human βI-tryptase | Ac-PRNK-ACC (SEQ. ID. NO: 12) is a specific substrate for tryptase in relation to other blood borne serine proteases | 17.8 s⁻¹ | 1.23e+06 s^-1M^-1 |  | A minimal preference, approximately 2-fold, for P2-asparagine over P2-threonine was seen for both enzymes | 18.3 s⁻¹ | 780000 s^-1M^-1 | 19.1 s⁻¹ | 140000 s^-1M^-1 |  | 20.9 s⁻¹ | 1.12e+06 s^-1M^-1 |  |  |  |  | 14.5 µM | 23.4 µM | 133 µM | 18.6 µM
